We go through three molecules from publication PMC9467508, “DNA passes through cohesin’s hinge as well as its Smc3–kleisin interface” (eLife, 2022).

What all share (test): cross-linking; BMOE (0.64 mM) cross-linking of engineered cysteine pairs; 0.7 uM cohesin (Smc1, Smc3, and Scc1) and Scc2 in 25 mM HEPES pH 7.5, 50 mM NaCl, 1 mM MgCl2, 1 mM TCEP, 5% glycerol; 24°C, 5 min; with or without 10 mM ATP and 60 nM supercoiled pUC19; SDS-PAGE
What all share (settings): both partners purified

Experiment [1] deals with T1, cohesin (Smc1-His E1102C, Smc3, Scc1-StrepII) (S. cerevisiae, UniProt P32908 1-1225; P47037 1-1230; Q12158 1-566, E1102C).
T1 construct: Smc1, cohesin subunit, S. cerevisiae; Smc3, cohesin subunit, S. cerevisiae; Scc1 (kleisin subunit of cohesin), S. cerevisiae; Tied to the cross-linking experiment by its substitution; also called Smc1E1102C; cohesin (Smc1, Smc3, and Scc1); source: prepared as described in Collier et al., 2020 (pACEbac1i plasmid); purified; copies: + +
T1 sequence (P32908 whole entry E1102C, chain 1 of 3): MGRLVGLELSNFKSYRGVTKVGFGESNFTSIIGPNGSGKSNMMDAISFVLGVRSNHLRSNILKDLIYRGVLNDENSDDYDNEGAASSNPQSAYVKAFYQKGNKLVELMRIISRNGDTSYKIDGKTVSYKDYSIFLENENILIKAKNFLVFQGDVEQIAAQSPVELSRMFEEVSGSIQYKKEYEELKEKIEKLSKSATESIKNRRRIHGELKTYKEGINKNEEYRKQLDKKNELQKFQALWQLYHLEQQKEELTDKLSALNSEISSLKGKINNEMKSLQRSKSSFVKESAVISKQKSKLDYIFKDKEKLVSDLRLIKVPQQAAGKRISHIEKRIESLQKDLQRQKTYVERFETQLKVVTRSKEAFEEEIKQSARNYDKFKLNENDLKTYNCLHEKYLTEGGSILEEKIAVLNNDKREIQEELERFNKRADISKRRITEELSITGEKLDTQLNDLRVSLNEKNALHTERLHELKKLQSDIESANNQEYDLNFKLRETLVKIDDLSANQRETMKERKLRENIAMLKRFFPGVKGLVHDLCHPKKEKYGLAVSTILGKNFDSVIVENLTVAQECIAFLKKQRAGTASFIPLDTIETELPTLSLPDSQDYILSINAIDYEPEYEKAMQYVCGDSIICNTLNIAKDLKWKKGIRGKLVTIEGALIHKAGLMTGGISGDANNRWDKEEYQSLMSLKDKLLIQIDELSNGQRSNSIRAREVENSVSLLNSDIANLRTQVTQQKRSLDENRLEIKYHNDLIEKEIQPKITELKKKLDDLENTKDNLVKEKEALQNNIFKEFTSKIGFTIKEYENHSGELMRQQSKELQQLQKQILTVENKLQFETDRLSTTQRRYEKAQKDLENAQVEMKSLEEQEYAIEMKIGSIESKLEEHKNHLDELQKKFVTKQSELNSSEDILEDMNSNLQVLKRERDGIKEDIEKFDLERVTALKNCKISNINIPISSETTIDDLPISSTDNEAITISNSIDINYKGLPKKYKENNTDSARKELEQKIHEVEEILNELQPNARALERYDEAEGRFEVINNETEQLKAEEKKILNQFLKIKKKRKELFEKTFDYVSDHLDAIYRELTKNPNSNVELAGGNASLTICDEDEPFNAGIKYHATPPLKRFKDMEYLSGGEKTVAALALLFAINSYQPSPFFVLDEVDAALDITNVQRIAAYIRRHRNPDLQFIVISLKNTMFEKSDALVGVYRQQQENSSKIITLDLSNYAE
T1 sequence (P47037 whole entry, chain 2 of 3): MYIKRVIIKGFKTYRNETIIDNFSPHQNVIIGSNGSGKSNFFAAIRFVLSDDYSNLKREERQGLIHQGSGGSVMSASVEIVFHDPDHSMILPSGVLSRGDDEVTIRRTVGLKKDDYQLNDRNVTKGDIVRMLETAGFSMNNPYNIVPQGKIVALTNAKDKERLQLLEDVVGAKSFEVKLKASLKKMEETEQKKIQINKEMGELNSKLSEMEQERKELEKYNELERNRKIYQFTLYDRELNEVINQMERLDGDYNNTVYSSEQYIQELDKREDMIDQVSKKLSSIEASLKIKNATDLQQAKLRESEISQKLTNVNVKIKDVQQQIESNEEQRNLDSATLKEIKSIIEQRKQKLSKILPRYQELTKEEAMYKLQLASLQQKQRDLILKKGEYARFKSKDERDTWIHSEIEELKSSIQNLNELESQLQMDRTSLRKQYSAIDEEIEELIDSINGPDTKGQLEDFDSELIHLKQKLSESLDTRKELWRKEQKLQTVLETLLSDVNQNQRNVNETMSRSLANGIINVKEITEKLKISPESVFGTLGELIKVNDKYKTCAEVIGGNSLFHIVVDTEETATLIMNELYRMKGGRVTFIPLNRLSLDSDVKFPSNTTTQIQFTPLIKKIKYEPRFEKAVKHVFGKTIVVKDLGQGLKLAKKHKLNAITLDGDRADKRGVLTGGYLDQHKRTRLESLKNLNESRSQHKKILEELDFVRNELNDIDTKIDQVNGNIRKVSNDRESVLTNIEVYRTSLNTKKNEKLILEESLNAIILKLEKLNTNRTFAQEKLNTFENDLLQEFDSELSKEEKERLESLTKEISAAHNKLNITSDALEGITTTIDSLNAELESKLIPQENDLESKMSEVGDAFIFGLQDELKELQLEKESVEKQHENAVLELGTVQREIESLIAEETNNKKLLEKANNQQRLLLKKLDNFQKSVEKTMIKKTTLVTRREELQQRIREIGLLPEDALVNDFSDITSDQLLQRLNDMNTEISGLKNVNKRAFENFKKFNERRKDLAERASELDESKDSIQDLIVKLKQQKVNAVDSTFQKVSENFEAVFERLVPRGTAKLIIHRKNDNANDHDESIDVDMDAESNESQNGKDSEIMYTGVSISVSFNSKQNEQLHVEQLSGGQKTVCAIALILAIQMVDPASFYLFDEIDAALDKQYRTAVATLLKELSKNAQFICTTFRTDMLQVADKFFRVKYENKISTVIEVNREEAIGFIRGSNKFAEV
T1 sequence (Q12158 whole entry, chain 3 of 3): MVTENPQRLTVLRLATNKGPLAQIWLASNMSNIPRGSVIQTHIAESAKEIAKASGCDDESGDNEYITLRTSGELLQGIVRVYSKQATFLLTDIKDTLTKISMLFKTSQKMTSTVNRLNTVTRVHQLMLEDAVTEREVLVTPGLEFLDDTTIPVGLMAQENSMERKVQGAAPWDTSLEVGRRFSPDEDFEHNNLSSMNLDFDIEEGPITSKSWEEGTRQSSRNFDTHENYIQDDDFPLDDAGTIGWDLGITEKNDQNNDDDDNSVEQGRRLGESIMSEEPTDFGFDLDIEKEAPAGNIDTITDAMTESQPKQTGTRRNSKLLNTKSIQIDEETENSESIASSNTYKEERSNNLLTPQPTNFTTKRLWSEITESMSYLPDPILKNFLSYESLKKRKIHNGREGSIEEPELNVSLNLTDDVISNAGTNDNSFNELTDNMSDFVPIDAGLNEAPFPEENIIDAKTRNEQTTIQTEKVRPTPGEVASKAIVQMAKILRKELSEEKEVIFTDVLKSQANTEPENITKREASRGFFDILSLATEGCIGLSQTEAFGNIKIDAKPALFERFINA

The target in experiment [2] is T2, cohesin (Smc3 K1004C, Smc1, Scc1-StrepII) (S. cerevisiae, UniProt P32908 1-1225; P47037 1-1230; Q12158 1-566, K1004C).
T2 construct: Smc1, cohesin subunit, S. cerevisiae; Smc3, cohesin subunit, S. cerevisiae; Scc1 (kleisin subunit of cohesin), S. cerevisiae; Tied to the cross-linking experiment by its substitution; also called cohesin (Smc1, Smc3, and Scc1); source: prepared as described in Collier et al., 2020 (pACEbac1i plasmid); purified; copies: + +
T2 sequence (P32908 whole entry, stated change not applied, chain 1 of 3): as the sequence (P32908 whole entry E1102C, chain 1 of 3) above, with C1102E counted along it
T2 sequence (P47037 whole entry K1004C, chain 2 of 3): as the sequence (P47037 whole entry, chain 2 of 3) above, with K1004C counted along it
T2 sequence (Q12158 whole entry, chain 3 of 3): as the sequence (Q12158 whole entry, chain 3 of 3) above

The target of experiment [3] is T3, cohesin (Smc1, Smc3 S72C, Scc1-StrepII) (S. cerevisiae, UniProt P32908 1-1225; P47037 1-1230; Q12158 1-566, S72C).
T3 construct: Smc1, cohesin subunit, S. cerevisiae; Smc3, cohesin subunit, S. cerevisiae; Scc1 (kleisin subunit of cohesin), S. cerevisiae; Tied to the cross-linking experiment by its substitution; also called cohesin (Smc1, Smc3, and Scc1); source: prepared as described in Collier et al., 2020 (pACEbac1i plasmid); purified; copies: + +
T3 sequence (P32908 whole entry, chain 1 of 3): as the sequence (P32908 whole entry E1102C, chain 1 of 3) above, with C1102E counted along it
T3 sequence (P47037 whole entry S72C, chain 2 of 3): as the sequence (P47037 whole entry, chain 2 of 3) above, with S72C counted along it
T3 sequence (Q12158 whole entry, chain 3 of 3): as the sequence (Q12158 whole entry, chain 3 of 3) above

B1: Scc2 133-1493-StrepII T1281C (domain or fragment, S. cerevisiae, UniProt Q04002 133-1493, looked up)
chain: KSEIVSRPEAKHKLESVTSNAGNLSFNDNSSNKKTKTSTGVTMTQANLAEQYLNDLKNILDIVGFDQNSAEIGNIEYWLQLPNKKFVLTTNCLTKLQMTIKNITDNPQLSNSIEITWLLRLLDVMVCNIKFSKSSLKMGLDDSMLRYIALLSTIVLFNIFLLGKNDSNLHRESYIMEPVNFLSDLIESLKILTIEYGSLKIEFDTFQEALELLPKYIRNGPFLDDNVTAKLVYIFSDLLMNNDIEATTNIQFQSFWDNVKRISSDILVSLFGSFDQQRGFIIEELLSHIEKLPTKRIQKKLRKVGNQNIYITDFTFTLMSMLENINCYSFCNQMKDIAPENIDLLKNEYKKQEEFLFNIVEHINDTILERFFKNPSALRYVIDNFVQDLLLLISSPQWPVTEKILSSLLKRLLSVYSPSMQVSANIETICLQLIGNIGSTIFDIKCSTRDHEDNNLIKMINYPETLPHFFKSFEECIAYNETIKCRRSATRFLWNLRLGTILILEEYTKDAKEQIITVDNELKKILEQIKDGGLGPELENREADFSTIKLDYFSILHAFELLNLYDPYLKLILSLLAKDKIKLRSTAIKCLSMLASKDKVILSNPMVKETIHRRLNDSSASVKDAILDLVSINSSYFEFYQQINNNYNDDSIMVRKHVLRINEKMYDETNDIVTKVYVIARILMKIEDEEDNIIDMARLILLNRWILKVHEVLDQPEKLKEISSSVLLVMSRVAIMNEKCSQLFDLFLNFYLLNKEAHSKEAYDKITHVLTILTDFLVQKIVELNSDDTNEKNSIVDKQNFLNLLAKFADSTVSFLTKDHITALYPYMVSDEKSDFHYYILQVFRCTFEKLANFKQKFLYDLETTLLSRLPKMNVREIDEAMPLIWSVATHRHDTARVAKACSSCLSHLHPYINKANNEEAAIVVDGKLQRLIYLSTGFARFCFPKPSNDKIAFLQEGETLYEHITKCLLVLSKDKITHVIRRVAVKNLTKLCGNHPKLFNSRHVLHLLDKEFQSDQLDIKLVILESLYDLFLLEERKSVRNTGVNSTLSSNSILKKKLLKTNRVEFANDGVCSALATRFLDNILQLCLLRDLKNSLVAIRLLKLILKFGYTNPSHSIPTVIALFASTSQYIRHVAYELLEDLFEKYECLVFSSLSRGVTKAIHYSIHTDEKYYYKHDHFLSLLEKLCGTGKKNGPKFFKVLKRIMQSYLDDITDLTSTNSSVQKSIFVLCTNISNITFVSQYDLVSLLKTIDLTTDRLKEVIMDEIGDNVSSLSVSEEKLSGIILIQLSLQDLGTYLLHLYGLRDDVLLLDIVEESELKNKQLPAKKPDISKFSAQLENIEQYSSNGKLLTYFRKHVKDT
notes: Scc2, cohesin loader subunit, S. cerevisiae, residues 133-1493; pACEbac1 is a baculovirus transfer vector, so insect cells are surmised; also called Scc2T1281C; source: prepared as described in Collier et al., 2020 (pACEbac1 plasmid); purified
In the case of B1, the binding result in experiment [1] is on record as “binds”.

B2: Scc2 133-1493-StrepII D369C (domain or fragment, S. cerevisiae, UniProt Q04002 133-1493, looked up)
chain: KSEIVSRPEAKHKLESVTSNAGNLSFNDNSSNKKTKTSTGVTMTQANLAEQYLNDLKNILDIVGFDQNSAEIGNIEYWLQLPNKKFVLTTNCLTKLQMTIKNITDNPQLSNSIEITWLLRLLDVMVCNIKFSKSSLKMGLDDSMLRYIALLSTIVLFNIFLLGKNDSNLHRESYIMEPVNFLSDLIESLKILTIEYGSLKIEFDTFQEALELLPKYIRNGPFLDDNVTAKLVYIFSCLLMNNDIEATTNIQFQSFWDNVKRISSDILVSLFGSFDQQRGFIIEELLSHIEKLPTKRIQKKLRKVGNQNIYITDFTFTLMSMLENINCYSFCNQMKDIAPENIDLLKNEYKKQEEFLFNIVEHINDTILERFFKNPSALRYVIDNFVQDLLLLISSPQWPVTEKILSSLLKRLLSVYSPSMQVSANIETICLQLIGNIGSTIFDIKCSTRDHEDNNLIKMINYPETLPHFFKSFEECIAYNETIKCRRSATRFLWNLRLGTILILEEYTKDAKEQIITVDNELKKILEQIKDGGLGPELENREADFSTIKLDYFSILHAFELLNLYDPYLKLILSLLAKDKIKLRSTAIKCLSMLASKDKVILSNPMVKETIHRRLNDSSASVKDAILDLVSINSSYFEFYQQINNNYNDDSIMVRKHVLRINEKMYDETNDIVTKVYVIARILMKIEDEEDNIIDMARLILLNRWILKVHEVLDQPEKLKEISSSVLLVMSRVAIMNEKCSQLFDLFLNFYLLNKEAHSKEAYDKITHVLTILTDFLVQKIVELNSDDTNEKNSIVDKQNFLNLLAKFADSTVSFLTKDHITALYPYMVSDEKSDFHYYILQVFRCTFEKLANFKQKFLYDLETTLLSRLPKMNVREIDEAMPLIWSVATHRHDTARVAKACSSCLSHLHPYINKANNEEAAIVVDGKLQRLIYLSTGFARFCFPKPSNDKIAFLQEGETLYEHITKCLLVLSKDKITHVIRRVAVKNLTKLCGNHPKLFNSRHVLHLLDKEFQSDQLDIKLVILESLYDLFLLEERKSVRNTGVNSTLSSNSILKKKLLKTNRVEFANDGVCSALATRFLDNILQLCLLRDLKNSLVAIRLLKLILKFGYTNPSHSIPTVIALFASTSQYIRHVAYELLEDLFEKYETLVFSSLSRGVTKAIHYSIHTDEKYYYKHDHFLSLLEKLCGTGKKNGPKFFKVLKRIMQSYLDDITDLTSTNSSVQKSIFVLCTNISNITFVSQYDLVSLLKTIDLTTDRLKEVIMDEIGDNVSSLSVSEEKLSGIILIQLSLQDLGTYLLHLYGLRDDVLLLDIVEESELKNKQLPAKKPDISKFSAQLENIEQYSSNGKLLTYFRKHVKDT
notes: Scc2, cohesin loader subunit, S. cerevisiae, residues 133-1493; also called Scc2D369C; source: prepared as described in Collier et al., 2020 (pACEbac1 plasmid); purified
On to B2, for which, in experiment [2], the binding result is “binds”.

B3: Scc2 133-1493-StrepII E819C (domain or fragment, S. cerevisiae, UniProt Q04002 133-1493, looked up)
chain: KSEIVSRPEAKHKLESVTSNAGNLSFNDNSSNKKTKTSTGVTMTQANLAEQYLNDLKNILDIVGFDQNSAEIGNIEYWLQLPNKKFVLTTNCLTKLQMTIKNITDNPQLSNSIEITWLLRLLDVMVCNIKFSKSSLKMGLDDSMLRYIALLSTIVLFNIFLLGKNDSNLHRESYIMEPVNFLSDLIESLKILTIEYGSLKIEFDTFQEALELLPKYIRNGPFLDDNVTAKLVYIFSDLLMNNDIEATTNIQFQSFWDNVKRISSDILVSLFGSFDQQRGFIIEELLSHIEKLPTKRIQKKLRKVGNQNIYITDFTFTLMSMLENINCYSFCNQMKDIAPENIDLLKNEYKKQEEFLFNIVEHINDTILERFFKNPSALRYVIDNFVQDLLLLISSPQWPVTEKILSSLLKRLLSVYSPSMQVSANIETICLQLIGNIGSTIFDIKCSTRDHEDNNLIKMINYPETLPHFFKSFEECIAYNETIKCRRSATRFLWNLRLGTILILEEYTKDAKEQIITVDNELKKILEQIKDGGLGPELENREADFSTIKLDYFSILHAFELLNLYDPYLKLILSLLAKDKIKLRSTAIKCLSMLASKDKVILSNPMVKETIHRRLNDSSASVKDAILDLVSINSSYFEFYQQINNNYNDDSIMVRKHVLRINEKMYDETNDIVTKVYVIARILMKICDEEDNIIDMARLILLNRWILKVHEVLDQPEKLKEISSSVLLVMSRVAIMNEKCSQLFDLFLNFYLLNKEAHSKEAYDKITHVLTILTDFLVQKIVELNSDDTNEKNSIVDKQNFLNLLAKFADSTVSFLTKDHITALYPYMVSDEKSDFHYYILQVFRCTFEKLANFKQKFLYDLETTLLSRLPKMNVREIDEAMPLIWSVATHRHDTARVAKACSSCLSHLHPYINKANNEEAAIVVDGKLQRLIYLSTGFARFCFPKPSNDKIAFLQEGETLYEHITKCLLVLSKDKITHVIRRVAVKNLTKLCGNHPKLFNSRHVLHLLDKEFQSDQLDIKLVILESLYDLFLLEERKSVRNTGVNSTLSSNSILKKKLLKTNRVEFANDGVCSALATRFLDNILQLCLLRDLKNSLVAIRLLKLILKFGYTNPSHSIPTVIALFASTSQYIRHVAYELLEDLFEKYETLVFSSLSRGVTKAIHYSIHTDEKYYYKHDHFLSLLEKLCGTGKKNGPKFFKVLKRIMQSYLDDITDLTSTNSSVQKSIFVLCTNISNITFVSQYDLVSLLKTIDLTTDRLKEVIMDEIGDNVSSLSVSEEKLSGIILIQLSLQDLGTYLLHLYGLRDDVLLLDIVEESELKNKQLPAKKPDISKFSAQLENIEQYSSNGKLLTYFRKHVKDT
notes: Scc2, cohesin loader subunit, S. cerevisiae, residues 133-1493; also called Scc2E819C; source: prepared as described in Collier et al., 2020 (pACEbac1 plasmid); purified
Take B3: the binding result in experiment [3] is recorded as “binds”.
